# Patent US20220056125A1 (CEPHALON, published 2022)
# T1: human PAR-2 (human, UniProt P55085 26-397)
# T1 sequence: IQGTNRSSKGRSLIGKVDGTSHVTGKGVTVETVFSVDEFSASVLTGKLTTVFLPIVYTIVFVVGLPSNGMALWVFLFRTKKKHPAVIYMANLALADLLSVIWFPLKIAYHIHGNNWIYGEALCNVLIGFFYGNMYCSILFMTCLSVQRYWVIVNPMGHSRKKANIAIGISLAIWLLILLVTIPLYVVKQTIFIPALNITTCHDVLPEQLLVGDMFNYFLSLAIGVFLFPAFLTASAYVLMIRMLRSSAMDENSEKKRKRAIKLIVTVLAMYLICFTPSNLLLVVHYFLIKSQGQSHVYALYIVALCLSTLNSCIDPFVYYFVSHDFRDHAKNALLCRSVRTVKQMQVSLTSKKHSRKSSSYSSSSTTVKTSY
# Target: T1, human PAR-2
# Test: cell-based or functional assay
row,Binder,"PAR-2 β-arrestin cell based assay IC50, 2 µM SLIGKV"
1,"P24E915 (antibody, human IgG4 S228P, kappa, V domains shown) VH: QVQLVQSGAEVKKPGSSVKVSCKASGFSLSSYAISWVRQAPGQGLEWMGVIWGNGNTYYAQKFQGRVTITADESTSTAYMELSSLRSEDTAVYYCARWKGYKDYPFDYWGQGTLVTVSS VL: EIVLTQSPATLSLSPGERATLSCKASQNVYKWLDWYQQKPGQAPRLLIYNAYSLATGIPARFSGSGSGRDFTLTISSLEPEDFAVYYCQQHNSGWTFGGGTKVEIKR",1.16 nM
2,"P24E916 (antibody, human IgG4 S228P, kappa, V domains shown) VH: QVQLVQSGAEVKKPGSSVKVSCKASGFSLSSYAISWVRQAPGQGLEWMGVIWGNGNTYYAQKFQGRVTITADESTSTAYMELSSLRSEDTAVYYCARWKGYKDYPFDYWGQGTLVTVSS VL: EIVLTQSPATLSLSPGERATLSCRASQNVYKWLDWYQQKPGQAPRLLIYNAYSRATGIPARFSGSGSGRDFTLTISSLEPEDFAVYYCQQHNSGWTFGGGTKVEIKR",1.1 nM
3,"P24E917 (antibody, human IgG4 S228P, kappa, V domains shown) VH: QVQLVQSGAEVKKPGSSVKVSCKASGFSLSSYAISWVRQAPGQGLEWMGVIWGNGNTYYAQKFQGRVTITADESTSTAYMELSSLRSEDTAVYYCARWKGYKDYPFDYWGQGTLVTVSS VL: EIVLTQSPATLSLSPGERATLSCKASQNVYKWLDWYQQKPGQAPRLLIYNAYSLATGIPARFSGSGSGRDFTLTISSLEPEDFAVYYCQQHGSGWTFGGGTKVEIKR",0.93 nM
4,"P24E918 (antibody, human IgG4 S228P, kappa, V domains shown) VH: QVQLVQSGAEVKKPGSSVKVSCKASGFSLSSYAISWVRQAPGQGLEWMGVIWGNGNTYYAQKFQGRVTITADESTSTAYMELSSLRSEDTAVYYCARWRGFKDYPFDYWGQGTLVTVSS VL: EIVLTQSPATLSLSPGERATLSCRASQNIYKWLDWYQQKPGQAPRLLIYNAYSLATGIPARFSGSGSGRDFTLTISSLEPEDFAVYYCQQHNSGWTFGGGTKVEIKR",1.18 nM

# The remaining lines, values ahead:
row,"PAR-2 β-arrestin cell based assay IC50, 2 µM SLIGKV",Binder
1,1.32 nM,"P24E920 (antibody, human IgG4 S228P, kappa, V domains shown) VH: QVQLVQSGAEVKKPGSSVKVSCKASGFSLSSYAISWVRQAPGQGLEWMGVIWGNGNTYYAQKFQGRVTITADESTSTAYMELSSLRSEDTAVYYCARWRGFKDYPFDYWGQGTLVTVSS VL: EIVLTQSPATLSLSPGERATLSCRASQNVYKWLDWYQQKPGQAPRLLIYNAYSRATGIPARFSGSGSGRDFTLTISSLEPEDFAVYYCQQHNSGWTFGGGTKVEIKR"
2,1.44 nM,"P24E919 (antibody, human IgG4 S228P, kappa, V domains shown) VH: QVQLVQSGAEVKKPGSSVKVSCKASGFSLSSYAISWVRQAPGQGLEWMGVIWGNGNTYYAQKFQGRVTITADESTSTAYMELSSLRSEDTAVYYCARWRGFKDYPFDYWGQGTLVTVSS VL: EIVLTQSPATLSLSPGERATLSCKASQNVYKWLDWYQQKPGQAPRLLIYNAYSLATGIPARFSGSGSGRDFTLTISSLEPEDFAVYYCQQHNSGWTFGGGTKVEIKR"
3,1.9 nM,"P24E921 (antibody, human IgG4 S228P, kappa, V domains shown) VH: QVQLVQSGAEVKKPGSSVKVSCKASGFSLSSYAISWVRQAPGQGLEWMGVIWGNGNTYYAQKFQGRVTITADESTSTAYMELSSLRSEDTAVYYCARWRGFKDYPFDYWGQGTLVTVSS VL: EIVLTQSPATLSLSPGERATLSCKASQNVYKWLDWYQQKPGQAPRLLIYNAYSLATGIPARFSGSGSGRDFTLTISSLEPEDFAVYYCQQHGSGWTFGGGTKVEIKR"
4,1.01 nM,"P24E922 (antibody, human IgG4 S228P, kappa, V domains shown) VH: QVQLVQSGAEVKKPGSSVKVSCKASGFSLSSYAISWVRQAPGQGLEWMGVIWGNGNTYYAQKFQGRVTITADESTSTAYMELSSLRSEDTAVYYCARWRGWKDYPFDYWGQGTLVTVSS VL: EIVLTQSPATLSLSPGERATLSCRASQNIYKWLDWYQQKPGQAPRLLIYNAYSLATGIPARFSGSGSGRDFTLTISSLEPEDFAVYYCQQHNSGWTFGGGTKVEIKR"
